The values that follow come from article PMC3333870.

The data set concerns the target T1, rLin28 (Lin28) (UniProt Q9H9Z2 1-209).
T1 sequence: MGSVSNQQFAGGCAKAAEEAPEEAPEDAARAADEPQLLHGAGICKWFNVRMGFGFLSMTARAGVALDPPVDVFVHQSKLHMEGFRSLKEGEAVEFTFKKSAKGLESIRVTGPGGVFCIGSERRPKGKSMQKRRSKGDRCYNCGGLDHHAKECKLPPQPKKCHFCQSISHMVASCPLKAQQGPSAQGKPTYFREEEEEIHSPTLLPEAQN
Kind of data set: EMSA.

B1: pre-let-7a-1 (structured_RNA)
RNA: GGGCUGAGGUAGUAGGUUGUAUAGUUUUAGGGUCACACCCACCACUGGGAGAUAACUAUACAAUCUACUGUCUUUCC
As usually defined, the Kd is the constant that tells how readily two partners part at equilibrium. Read a high Kd as weaker binding. B1: the Kd stood at 1990 nM.
